In patent US7060670B1, “Stereoselective antifibrillogenic peptides and peptidomimetics thereof” (Neurochem (International) Limited, priority 1999, dated 2006):
No end group written: not given here.

Key:
Type in all cases: biochemical
Aβ(1–40) = target: T1, Aβ(1–40) (Homo sapiens, UniProt P05067); assay: thioflavin T fluorescence assay for fibrillogenesis of Aβ(1–40)
T1 construct: Aβ (1–40) 95% purity (American Peptide Company); purchased American Peptide Company, Inc 62-0-78
Excerpt: The thioflavin T fluorescence assay for fibrillogenesis is based on the principle that the fluorescent dye, thioflavin T, binds specifically to fibrillar, but not to unaggregated Aβ peptide (LeVine III, H., 1993, Protein Science 2:404–410). Upon binding, thioflavin T develops a characteristic fluorescence (Naiki, H., et al., 1996, Lab. Invest. 74: 374–383) which can be easily detected. The dye is believed to interact with the stacked cross-β pleated sheets, the common structural motif of all amyloids (LeVine III, H., 1995, Amyloid: Int. J. Exp. Clin Invest. 2:1.6). Thioflavin T is widely used to assay the effect of compounds on Aβ peptide fibrillogenesis (Bronfman, P. C., et al., 1995, Neuroscience Lett. 218:201–203). In this assay test compounds are incubated with a solution of Aβ(1–40) (20 μM) containing 10 μM thioflavin T, in 0.02M Tris/0.02M acetate/0.15M NaCl/0.005% azide/pH 7.40 at 37° C. in sealed 384 well microplates. Readings (ex 430 nm/em 485 nm) are taken at various time intervals with a microplate fluorescence reader. An increase in fluorescence signifies the appearance of amyloid or intermediates in the production of amyloid. Inhibitors of fibrillogenesis will lead to less fluorescence production. The results illustrated in Table 1 below, are based on the fluorescence production in the presence of test peptides at either 20 μM or 80 μM concentration, at the time intervals of 5, 19, 45, 67, 77 and 90 hours, compared to a control, buffer alone, without added inhibitory peptide. Protocol Aβ peptide: Aβ (1–40) 95% purity (American Peptide Company, Inc, Sunnyvale, Cal. USA, cat. 62-0-78) is disaggregated in trifluoroacetic acid and filtered through a […] filter, (Whatman Anotop 25 plus, 0.02 μm, Catalogue no. 6809 4102) in hexafluoroisopropanol (HFIP). Solutions of Aβ (1–40) at 600 μM in HFIP are stored at −80° C. Assay mixture: The mixture is prepared as two solutions that are combined upon addition to the 384 well microplate (Corning Costar cat. 3705). • i) Solution A consists of test peptides in 0.02M Tris/0.02M acetate/0.15M NaCl/0.01% azide at pH 7.40 or buffer alone (control), • ii) Solution B consists of Aβ(1–40) 40 μM, thioflavin T 20 μM in 0.02M Tris/0.02M acetate/0.15M NaCl at pH 7.40. This solution is prepared by drying the Aβ peptide under nitrogen and then resuspending this in 0.04M Tris base with 15 minutes sonication. An equal volume of 0.04M acetic acid containing 0.3 M NaCl is added and the solution is adjusted to pH 7.40±0.02. A small volume of 5 mM thioflavin T is added to the solution to give a final 20 μM concentration of thioflavin T. • iii) The microplate is loaded with 40 μL of solution A followed by 40 μL of solution B which gives a final 20 μM Aβ(1–40), 10 μM thioflavin T, and either 20 μM, 80 μM or 100 μM test compound in 0.02M Tris/0.02M acetate/0.15M NaCl/0.005% azide, pH 7.40. The plate is sealed and loaded into the microplate fluorescence reader. Fluorescence measurement data analysis: The HTS-7000 Bio Assay Reader, Perkin Elmer, is used to perform kinetic runs of about 5 days. Readings were taken at various time intervals, 5, 19, 45, 67, 77 and 90 hours, with one minute shaking before each reading. Bandpass filters used were: excitation 430 nm, emission […]. Calculations The rank order of efficacy of the peptides is determined by observing which peptides allow the appearance of fluorescence, above the background level, first. For example in the presence of buffer control alone, fluorescence appears earlier than when any of the peptides is present.

all-[D]-Aβ (1–40) = assay: thioflavin T fluorescence assay for fibril formation by [D]-Aβ (1–40); details: FIG. 3
Aβ40 [1] = target: T2, Aβ40 (Homo sapiens, UniProt P05067); assay: CD spectrum of Aβ40 incubated with peptide (β-sheet content)
T2 construct: when incubated with Aβ40 under physiological conditions
Excerpt: (§1) It is the understanding of the inventors that this interesting observation will lead to a greater understanding of fibrillogenesis of Aβ40 and Aβ42 peptides and as a result, will provide important information for the design of potent anti-fibrillogenic compounds for Aβ, other amyloidotic peptides such as AA, AL and IAPP for the treatment of diseases such as Alzheimer's, Type II Diabetes and amyloidosis related disorders. The same principle can also be applied to the design of peptide type compounds for the inhibition of binding of various chemokines to the cell surface as well as inhibition of self assembly and cellular adherence of prion proteins.

Aβ40 [2] = target: T2, Aβ40; assay: electron microscopy of peptide/Aβ40 mixture; details: mixture of peptide and Aβ40
Excerpt: as §1

Aβ = Aβ (Homo sapiens, UniProt P05067); assay: Aβ-NBD environmental probe fibrillogenesis assay; details: in vitro
Chain of Aβ (P05067 672-711 limits assumed): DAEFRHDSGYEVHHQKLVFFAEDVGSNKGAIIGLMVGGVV

T2 sequence (P05067 672-711 limits assumed): as above
T1 sequence (P05067 672-711 limits assumed): as above

Substance: KLVFFA [reference compound]
- Order Of Potency of Peptide Inhibitors, Tested at 20 μM (Aβ(1–40); rank, 1 = strongest activity, 11 = weakest, peptide 20 μM, Aβ(1–40) 20 μM, by first appearance of fluorescence over 5-90 hours): 8 (L) KLVFFA
- Order Of Potency of Peptide Inhibitors, Tested at 80 μM (Aβ(1–40); rank, 1 = strongest activity, 11 = weakest, peptide 80 μM, Aβ(1–40) 20 μM, by first appearance of fluorescence over 5-90 hours): 8 (L) KLVFFA
- inhibition of all-[D]-Aβ (1–40) assembly compared with the opposite stereoisomer (all-[D]-Aβ (1–40)): more potent inhibitor

Substance: KVDDQD [hexapeptide]
- anti-fibrillogenic activity in thioflavin-T based fluorescence assay (Aβ(1–40); in vitro): confirm this finding
- β-sheet content of Aβ40 by CD spectrum after 24 hours incubation (Aβ40 [1]; 24 hours): dramatic increase
- β-sheet content of Aβ40 by CD spectrum at time t=0 (Aβ40 [1]; physiological conditions, t=0): increase
- fibrils seen by electron microscopy (Aβ40 [2]): failed to show any fibrils
- anti-fibrillogenic activity in NBD based fluorescence assay (Aβ): confirm this finding
